Measurements reported in article PMC2695464, “On the mechanism of autoinhibition of the RhoA-specific nucleotide exchange factor PDZRhoGEF” (BMC Structural Biology, 2009).

Target: human RhoA^F25N (residues 1–181) (human, UniProt P61586 1-181, F25N)
Assay: cell-based or functional assay

human RhoA^F25N (residues 1–181), sequence (P61586 1-181 F25N): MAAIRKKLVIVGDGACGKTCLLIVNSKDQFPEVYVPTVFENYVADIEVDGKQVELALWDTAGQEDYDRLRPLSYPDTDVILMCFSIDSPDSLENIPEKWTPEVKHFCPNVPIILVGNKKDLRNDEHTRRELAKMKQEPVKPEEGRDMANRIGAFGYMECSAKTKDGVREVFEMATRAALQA

catalytic activity in the nucleotide exchange assay on RhoA (mant-GTP fluorescence): 3.3 fold over the isolated DH-PH tandem
B1: PRG^4R: PRG^672–1081 with D706R, E708R, E710R, D712R (domain or fragment, human, UniProt O15085 672-1081, looked up)
chain: TPKMGRRSIESPSLGFCTDTLLPHLLEDDLGQLSRLRPRPRAQNWQHTVGKDVVAGLTQREIDRQEVINELFVTEASHLRTLRVLDLIFYQRMKKENLMPREELARLFPNLPELIEIHNSWCEAMKKLREEGPIIKEISDLMLARFDGPAREELQQVAAQFCSYQSIALELIKTKQRKESRFQLFMQEAESHPQCRRLQLRDLIISEMQRLTKYPLLLESIIKHTEGGTSEHEKLCRARDQCREILKYVNEAVKQTENRHRLEGYQKRLDATALERASNPLAAEFKSLDLTTRKMIHEGPLTWRISKDKTLDLHVLLLEDLLVLLQKQDEKLLLKCHSKTAVGSSDSKQTFSPVLKLNAVLIRSVATDKRAFFIICTSKLGPPQIYELVALTSSDKNTWMELLEEAVRNA
